These results are taken from the supplement of paper PMC10567573.

The chains are these.
B1: RHOBTB2 (parent)
chain: LYTGELDENERDLMHIAHIAELLE
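Note: lentivirally expressed fusions sorted by FACS into six bins by GFP to DsRed ratio, PSI derived from sequencing read proportions per bin multiplied by bin number.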

The variants in this series derive from B1. Description: protein stability index of a GFP-peptide fusion (GPS, HEK-293T) (PSI 1-6); higher = more stable. Particulars: c terminus: a fixed tail appended.
Turning to LYTGELDEIERDLMHIAHIAELLE [N9I], the protein stability index came to 3.37.

With LYTGELDEGERDLMHIAHIAELLE [N9G], the protein stability index amounted to 2.82.

For LYTGELDESERDLMHIAHIAELLE [N9S], the protein stability index was determined as 2.19.

Take LYTGELDEHERDLMHIAHIAELLE [N9H]: the protein stability index worked out at 2.54.

LYTGELDEMERDLMHIAHIAELLE [N9M]: the protein stability index was 1.86.

Consider LYTGELDETERDLMHIAHIAELLE [N9T], for which the protein stability index came out at 2.71.

For the variant LYTGELDEPERDLMHIAHIAELLE [N9P], the protein stability index was found to be 2.03.

For the variant LYTGELDERERDLMHIAHIAELLE [N9R], the protein stability index was determined as 2.79.

For LYTGELDECERDLMHIAHIAELLE [N9C], the protein stability index was determined as 1.85.

In the case of LYTGELDEVERDLMHIAHIAELLE [N9V], the protein stability index came out at 1.89.

With LYTGELDEKERDLMHIAHIAELLE [N9K], the protein stability index turned out to be 2.68.

Take LYTGELDELERDLMHIAHIAELLE [N9L]: the protein stability index turned out to be 1.51.

For LYTGELDEAERDLMHIAHIAELLE [N9A], the protein stability index amounted to 2.57.

Regarding LYTGELDEFERDLMHIAHIAELLE [N9F], the protein stability index worked out at 1.34.

On to LYTGELDEYERDLMHIAHIAELLE [N9Y], for which the protein stability index is 1.64.

On to LYTGELDEDERDLMHIAHIAELLE [N9D], for which the protein stability index is 2.59.

As for LYTGELDEEERDLMHIAHIAELLE [N9E], the protein stability index was 3.15.

In the case of LYTGELDEQERDLMHIAHIAELLE [N9Q], the protein stability index is 2.25.

On to LYTGELDENERDLMHIADIAELLE [H18D], for which the protein stability index came out at 2.87.

With LYTGELDENERDLMHIACIAELLE [H18C], the protein stability index was 2.41.

As to LYTGELDENERDLMHIAAIAELLE [H18A], the protein stability index was 1.65.

Turning to LYTGELDENERDLMHIAIIAELLE [H18I], the protein stability index came out at 2.65.

As to LYTGELDENERDLMHIAGIAELLE [H18G], the protein stability index came to 3.76.

Turning to LYTGELDENERDLMHIAFIAELLE [H18F], the protein stability index turned out to be 1.72.

In the case of LYTGELDENERDLMHIAEIAELLE [H18E], the protein stability index was determined as 3.32.

On to LYTGELDENERDLDHIAHIAELLE [M14D], for which the protein stability index is 3.41.

LYTGELDENERDLCHIAHIAELLE [M14C]: the protein stability index is 2.45.

As for LYTGELDENERDLVHIAHIAELLE [M14V], the protein stability index amounted to 2.16.

With LYTGELDENERDLYHIAHIAELLE [M14Y], the protein stability index is 2.01.

As for LYTGELDENERDLGHIAHIAELLE [M14G], the protein stability index was determined as 3.36.

Take LYTGELDENERDLLHIAHIAELLE [M14L]: the protein stability index turned out to be 2.58.

Take LYTGELDENERDLPHIAHIAELLE [M14P]: the protein stability index amounted to 3.48.

As to LYTGELDENERDLTHIAHIAELLE [M14T], the protein stability index was 3.04.

Turning to LYTGELDENERDLHHIAHIAELLE [M14H], the protein stability index came out at 3.1.

On to LYTGELDENERDLRHIAHIAELLE [M14R], for which the protein stability index was 2.36.

Turning to LYTGELDENERDLSHIAHIAELLE [M14S], the protein stability index came out at 3.8.

Turning to LYTGELDENERDLAHIAHIAELLE [M14A], the protein stability index worked out at 2.39.

Turning to LYTGELDENERDLNHIAHIAELLE [M14N], the protein stability index is 3.52.

As for LYTGELDENERDLFHIAHIAELLE [M14F], the protein stability index is 2.54.

On to LYTGELDENERDLWHIAHIAELLE [M14W], for which the protein stability index amounted to 1.82.

Regarding LYTGELDENERDLIHIAHIAELLE [M14I], the protein stability index came to 2.84.

In the case of LYTGELDENERDLKHIAHIAELLE [M14K], the protein stability index is 2.89.

On to LYTGELDENERDLQHIAHIAELLE [M14Q], for which the protein stability index is 2.39.

Turning to LYTGELDENERDLMHIYHIAELLE [A17Y], the protein stability index turned out to be 1.93.

As for LYTGELDENERDLMHIWHIAELLE [A17W], the protein stability index is 1.87.

Regarding LYTGELDENERDLMHIEHIAELLE [A17E], the protein stability index turned out to be 2.17.

LYTGELDENERDLMHIHHIAELLE [A17H]: the protein stability index stood at 3.58.

With LYTGELDENERDLMHIPHIAELLE [A17P], the protein stability index turned out to be 3.85.

Consider LYTGELDENERDLMHIIHIAELLE [A17I], for which the protein stability index was found to be 2.1.

LYTGELDENERDLMHIVHIAELLE [A17V]: the protein stability index was 1.66.

Regarding LYTGELDENERDLMHINHIAELLE [A17N], the protein stability index amounted to 2.92.

As to LYTGELDENERDLMHISHIAELLE [A17S], the protein stability index came out at 3.02.

With LYTGELDENERDLMHICHIAELLE [A17C], the protein stability index amounted to 1.77.

For the variant LYTGELDENERDLMHILHIAELLE [A17L], the protein stability index was determined as 1.45.

Regarding LYTGELDENERDLMHITHIAELLE [A17T], the protein stability index came to 1.82.

With LYTGELDENERDLMHIKHIAELLE [A17K], the protein stability index is 2.72.

As for LYTGELDENERDLMHIDHIAELLE [A17D], the protein stability index was determined as 3.28.

Take LYTGELDENERDLMHIGHIAELLE [A17G]: the protein stability index came to 2.77.

As to LYTGELDENERDLMHIMHIAELLE [A17M], the protein stability index was found to be 1.41.

Turning to LYTGELDENERDLMHIFHIAELLE [A17F], the protein stability index is 2.38.

On to LYTGELDENERDLMHIQHIAELLE [A17Q], for which the protein stability index amounted to 2.95.

In the case of LYTGELDENERDLMHIRHIAELLE [A17R], the protein stability index was determined as 2.7.

Regarding LYTGELDKNERDLMHIAHIAELLE [E8K], the protein stability index was determined as 2.28.

For the variant LYTGELDTNERDLMHIAHIAELLE [E8T], the protein stability index turned out to be 2.4.

For the variant LYTGELDVNERDLMHIAHIAELLE [E8V], the protein stability index came to 2.9.

As to LYTGELDYNERDLMHIAHIAELLE [E8Y], the protein stability index worked out at 2.23.

LYTGELDLNERDLMHIAHIAELLE [E8L]: the protein stability index worked out at 1.57.

Regarding LYTGELDWNERDLMHIAHIAELLE [E8W], the protein stability index was found to be 2.88.

As to LYTGELDRNERDLMHIAHIAELLE [E8R], the protein stability index came out at 2.46.

For LYTGELDINERDLMHIAHIAELLE [E8I], the protein stability index came out at 1.62.

Take LYTGELDMNERDLMHIAHIAELLE [E8M]: the protein stability index turned out to be 1.78.

For LYTGELDPNERDLMHIAHIAELLE [E8P], the protein stability index worked out at 2.15.

Regarding LYTGELDSNERDLMHIAHIAELLE [E8S], the protein stability index amounted to 2.29.

On to LYTGELDQNERDLMHIAHIAELLE [E8Q], for which the protein stability index is 2.85.

Turning to LYTGELDNNERDLMHIAHIAELLE [E8N], the protein stability index is 2.21.

Turning to LYTGELDENETDLMHIAHIAELLE [R11T], the protein stability index is 2.14.

For LYTGELDENEDDLMHIAHIAELLE [R11D], the protein stability index turned out to be 2.9.

As to LYTGELDENEEDLMHIAHIAELLE [R11E], the protein stability index is 2.44.

Take LYTGELDENEVDLMHIAHIAELLE [R11V]: the protein stability index came to 2.04.

On to LYTGELDENEIDLMHIAHIAELLE [R11I], for which the protein stability index was found to be 2.57.

With LYTGELDENESDLMHIAHIAELLE [R11S], the protein stability index came out at 2.5.

In the case of LYTGELDENEMDLMHIAHIAELLE [R11M], the protein stability index was 1.96.

In the case of LYTGELDENEFDLMHIAHIAELLE [R11F], the protein stability index is 1.83.

With LYTGELDENELDLMHIAHIAELLE [R11L], the protein stability index was found to be 1.77.

On to LYTGELDENEGDLMHIAHIAELLE [R11G], for which the protein stability index was 3.32.

As to LYTGELDENEYDLMHIAHIAELLE [R11Y], the protein stability index amounted to 2.42.

Turning to LYTGELDENEADLMHIAHIAELLE [R11A], the protein stability index was found to be 2.27.

Regarding LYTGELDENEWDLMHIAHIAELLE [R11W], the protein stability index was 2.04.

In the case of LYTGELDENENDLMHIAHIAELLE [R11N], the protein stability index was 2.1.

As to LYTGELDENECDLMHIAHIAELLE [R11C], the protein stability index was 2.66.

As for LYTGELDENEHDLMHIAHIAELLE [R11H], the protein stability index stood at 2.39.

For LYTGELDENEQDLMHIAHIAELLE [R11Q], the protein stability index is 1.96.

With LYTGELDENEKDLMHIAHIAELLE [R11K], the protein stability index turned out to be 2.77.

In the case of LYTGELDENEPDLMHIAHIAELLE [R11P], the protein stability index came out at 2.67.
